Assay results reported in patent publication US20090035321A1, “Intercellular adhesion molecules and their binding ligands” (Boehringer Ingelheim Pharmaceuticals, Inc., published 2009).

What was measured:
Test in all cases: COS cells on LFA-1 coated plastic
ICAM-1 D71GQS/NGEL = ICAM-1 D71GQS/NGEL (human, UniProt P05362)
ICAM-1 E111GGA/KAGS = ICAM-1 E111GGA/KAGS (human, UniProt P05362)
ICAM-1 E90/Q = ICAM-1 E90/Q (human, UniProt P05362)
ICAM-1 R13/E = ICAM-1 R13/E (human, UniProt P05362)
[1] = biological target: Intercellular Adhesion Molecule-1 (ICAM-1), wild type, on the cell surface (human) (UniProt P05362)
ICAM-1 D60/Q = ICAM-1 D60/Q (human, UniProt P05362)
ICAM-1 N118/Q = ICAM-1 N118/Q (human, UniProt P05362)
ICAM-1 R149RD/EEG = ICAM-1 R149RD/EEG (human, UniProt P05362)
ICAM-1 K8/E = ICAM-1 K8/E (human, UniProt P05362)
ICAM-1 Q1/K = ICAM-1 Q1/K (human, UniProt P05362)
ICAM-1 D213GL/HGV = ICAM-1 D213GL/HGV (human, UniProt P05362)
ICAM-1 Q58EDS/AKDI = ICAM-1 Q58EDS/AKDI (human, UniProt P05362)

LFA-1 Binding % (% of wild type) (ICAM-1 D71GQS/NGEL): 1
LFA-1 Binding % (% of wild type) (ICAM-1 E111GGA/KAGS): 103
LFA-1 Binding % (% of wild type) (ICAM-1 E90/Q): 122
LFA-1 Binding % (% of wild type) (ICAM-1 R13/E): 1
% of COS cells bound (mean) [1]: 33%
LFA-1 Binding % (% of wild type) (ICAM-1 D60/Q): 18
LFA-1 Binding % (% of wild type) (ICAM-1 N118/Q): 54
LFA-1 Binding % (% of wild type) (ICAM-1 R149RD/EEG): 81
LFA-1 Binding % (% of wild type) (ICAM-1 K8/E): 84
LFA-1 Binding % (% of wild type) (ICAM-1 Q1/K): 97
LFA-1 Binding % (% of wild type) (ICAM-1 D213GL/HGV): 90
LFA-1 Binding % (% of wild type) (ICAM-1 Q58EDS/AKDI): 3
Substance: purified LFA-1, bound to plastic (from UniProt P20701) (receptor)
